The source of these data is patent US20230226096A1 (Orna Therapeutics, Inc., priority 2020, published 2023).

The labels stand for the following.
B1: Cosavirus B1 (nucleic acid, listed as Cosavirus sp.)
DNA: CGTGCTTTACACGGTTTTTGAACCCCACACCGGCTGTTTGGCGCTTGCAGGACAGCAGGTTTATTTTCTTTTAACTCTCTCTTTCTAGCCACACACGATCTATGTGTGTGGGCGGAGTGATACTCCCGTTCCTTCTTGGACAGGCGGCCTCCACGCCCTTTGTGGATCTTAAGGCTACCAAGTCACTGGTGTTGGAAAGTGAAGAGAAAGGAGTTCCTTGGGAACTACATGTGGCATTGACAGAGGTTGTAGCGATGCTGTGTGTGTGTGCGGATTACCCCCGTGGCGACACGGACCCCACAGGCCAAAAGCCCTGTCCGAAAGGACCCACACAGTGGAGCAACCCCAGCTCCCCTCTTCAATGTTTTGTGTTAGCAACCTTGGTATTATTTTCTCTCAAGCTTCCAATACACCGGGCCCCAAAGATGTCCTGAAGGTACCCCGTGTATCTGAGGATGAGCACCATCAACTACCCGGACTTGTTCTTTCGAGAACAGACGCATGTGGTAACCCAGCCCCGATCCTAAGGGGTCGGGGCTTTTGCTCACTCAGCACAGGATCTGATCAGGAGACCTCCCCCCCCTGCTTTACAGGGGGCGGGGGTTTAAAAATTGCCCAAGGCCTGGCAAATAACCTAGGGGACTAGGTTTTCCTTTTTATTTTAAAGTTGTCAAT
B2: Tottorivirus (nucleic acid, listed as Tottorivirus sp.)
DNA: CCCCTTTACGTAACTGCAACTTAAAGAGTACCCTACTGCATTGGATGTGTGGTAAACTTTTACGCACACATTTGTAGTAGTGTTAGTTATGTTCTACCTAATGAGTATGCATGCACCCGTCGAAACACGCTTGTGATAAGATAGGTGAGTCCATGTGACTAATCTCATTAAGATAAATAAGCACCCTACAACGCACGGCACGCTCGTGTCTTCCGTGCGGGGCCGGGACAACAGCGGCCTAAATCTTCTAGGTGACCACCATGCTTTTGGGACTATGGCACCACTGTGGACGTGAGTACCTGGCAGTAAGTCTGTGAAAAGATGGAAGGTGTCCCAAGCTATGGGGCGTATGCATATAGCCTGCGGAACAAACAACGGCGACGTTGTCCCCAGGGCCCAAAAGGCACGTGGATAAGATCCACCTATATGTTTACCCCATAGTGTAAGTCACTGGAAGTCCTAGTAATGGATGTCTGGAGTAAGGCTCACGGGGTAGGGCGAAGGATGCCCAGAAGGTACCCGTAGGTAACCTTAAGAGACTATGGATCTGATCTGGGGACCGGATGGCGCCATCACCATGACGTGGAGGCCGGTTTAAAAAACGTCTAAGCCCGACCAACAACCTAGGGGACTAGGTTTTCCTTTTTTATTCATGTATGACGTT
B3: Malagasivirus B (nucleic acid)
DNA: CTTTATTTTCTTATGTAACTCTTCTTTTTAAGTTTTATTTTGCCTACTTGTGAGCTTATGCGGGACCACTGTCTTAGACAACCCCACATTTGTCATGAGTAAGTACACGCAACCATTACGATTACTTTTTAACCGTCTGACCTTTTGATAACAACTGAAGTTAGGCGTGAAACATGCATTTATACCAAAGTAGCCCCGCATTTCCCCACTACGGTGGGGGGGCTACCCTACTGGCTTTGGAACTGTAGCCATTATGTGTTGCCTGGCTTTCAGGATCTCACAACACAACAGTTCTCTCACAATGGAATATGGGTGAGATTGCAGTGACATGAACAAGTATCTAGTAGTACATAGACTCAAGCCTAGTTGCCTGCGGAACAACATGTGGTAACACATGCCCCAGGGTCCAAAAGACAAGGGTTAACAGCCCCTTCTAGGTGTCTGTGTGTGAAGAATACTTTAGTAGTGTTGTTATGATCTCACCTGTTAGTACAGAATGAGTATGGCTTGGTGAAGGATGTCCTACAGGTACCCATTATATGGATCTGAGTAGGAGACCACTAGTGGTGGCTTTACCGCCAGGTGAGTGGTTTAAAAAGCGTCTAGCCAAGCCAACAGCACTAGGGATAGTGCTTTCTATATTTTATATTTTCAGTGTAT
modifications: Malagasivirus B
B4: Cosavirus A SH1 (nucleic acid)
DNA: CCGTGCTTTACACGGTTTTTGAACCCCACACCGGCTGTTTGGCGCTTGCAGGACAGCAGGTTTATTTTCTTATGCTCTTTATTTCTAGCCAACAGGGTTCTATCCTGTTGGGCGGAGTGATACTCCCGTTCCTTCTTGGACAGATTGCCTCCACGATCTTTGTGGATCTCAAGGTGATCAAGTCACTGGTAAATAGAGCGAAGGTTGAGGAAACCTGAGGAATTTCCATGTGGTTTTGCCAGGAGTTGTAGCGATGCTGTGTGTGTGTGCGGATTTCCCCTCATGGCAACATGAGCCTCACAGGCCAAAAGCCCTGTCCGAAAGGACCCACACAGTGGAGCAATCCCAGCTCCCTCCTACAAAGCTTTGTGAGAATGAACTCACGTTTATTCTTCTTTATTCTCTGTTTACATCAGGCCCCAAAGATGTCCTGAAGGTACCTTGTGTATCTGGGCATGAGCACCATCAACTACCCGGACTTGCATTTCGGTGCAGACACATGTGGTTACCCAGCCCCTCTGCTTTGGCAGAGGGGCTTTTGCTCGCTCAGCACGAGATCTGATCAGGAGCCCTTCCCAGTGTGCTTTACACCTGGCGGGGGGTTAAAAATTGCCCAAGGCCTGGCAAAATAACCTAGGGGACTAGGTTTTCCTTTTATTAACAATGTCTGTCATT
modifications: Cosavirus A
B5: Mosavirus A2 SZAL6 (nucleic acid, listed as Mosavirus sp.)
DNA: CCCCCCCCTCAAATTGCAACGATATAGCTAATGGCGAGATTGAGATGCTATATCACCTCTTCTAAGTTATAGACCTCATCTGATTGATAAGGACGTAATTTGGTCGAAACCGCTTGGAATAAGACCGATGCGCGTAGTCATGATGATGATGTAAGATCTAGGAACTTATCCAATCTGCTTATGTCTATGTAAGTAGAGGGGCAGGCCTCATTGCCCTAATTCTTTCTACCGAGTATCTGCTAGGGTTTCTAGCGGCTTGAATACTTGGATTGAGGGATACAAGATACTACTGATCGATTGTCGATTGGGAAACTTGTAGATACTTCAAAGCTACCAGTAGCGTGGACTCACAGCCAGCGGACTACCCCTCATGGTAACATGAGCCTCTGGGCCCACAAGGCACGTCGCAAGACCTGTGAGACGGCAACCCCAGCCTAGCTTTGTTGAGGAAACAAGCGATAACATGACATGAGAGACCGGAAGGATTCTTGTATTGTGAGCCGAAGGATGGCCTCTAGGTACCTCATTTTATGAGATCTGAGGAGGTGCTCTTGAGTTGGTGCTTTACACTGACAACACAGAGTTAAAAAGCGTCTAAGCTCACCCGGAAATTGGGAAATTTCCGTTATTTCCATTTTGTTTGCAAAGTCGTTC
B6: PTV A (nucleic acid)
DNA: ACTAGTCCTTGGACTTTTGTTGTGTTTAAACACAGAAATTTAATTACCTGGCCATGAATTCATTGGATTAACCCTTCTGAAAGACTTGCTCTGGCGCGAGCTAAAGCGCAATTGTCACCAGGTATTGCACCAGTGGTGGCGACAGGGTACAGAAGAGCAAGTACTCCTGACCGGGCAATGGGACTGCATTGCATATCCCTAGGCACCTATTGAGATTTCTCTGGGGCCCACCGGCGTGGAGTTCCTGTATGGGAATGCAGGACTGGACTTGTGCTGCCTGACAGGGTCGCGGCTGGCCGTCTGTACTTTGTATAGTCAGTTGAAACTCACC
modifications: Teschovirus A
B7: PTV B (nucleic acid)
DNA: CTTCCTTTTAATTCGTAACTGATAAGTGATAGTCCTTGGAAGCTAGGTATTTGTTACGCTAGTTTTGGATTATCTTGTGCCCAACATTTGTTTTCGAACATATGTTGTGTTTAAACACAGAAATCTAGTTTCTTTGGTTATGAGTTTAATGGAATATCCTTTTGAAAGACTTGCCTTGGCGCGGGCTAGAGCGCAATTGTCACCAGGTATTGCACCAATGGTGGCGACAGGGTACAGAAGAGCAAGTACTCCTGACTGGGTAATGGGACTGCATTGCATATCCCTAGGCATCTATTGAGATTTCTCTGGAGCCCACCAGCATGGAGTTCCTGTATGGGAATGCAGGACTGGACTTGTGCTGCCTGACAGGGTCGCGGCTGGCCGTCTGTACTTTGTATAGTCAGTTGAAACTCATT
modifications: Teschovirus B
B8: REV A (nucleic acid, listed as Reticuloendotheliosis virus)
DNA: GGGGTCGCCGTCCTACACATTGTTGTGACGTGCGGCCCAGATTCGAATCTGTAATAAAAGCTTTTTCTTCTATATCCTCAGATTGGCAGTGAGAGGAGATTTTGTTCGTGGTGTTGGCTGGCCTACTGGGTGGGGTAGGGATCCGGACTGAATCCGTAGTATTTCGGTACAACATTTGGGGGCTCGTCCGGGATTCCTCCCCATCGGCAGAGGTGCCTACTGTTTCTTCGAACTCCGGCGCCGGTAAGTAAGTACTTGATTTTGGTACCTCGCGAGGGTTTGGGAGGATCGGAGTGGCGGGACGCTGCCGGGAAGCTCCACCTCCGCTCAGCAGGGGACGCCCTGGTCTGAGCTCTGTGGTATCTGATTGTTGTTGAACCGTCTCTAAGACGGTGATACTATAAGTCGTGGTTTGTGTGTTTGTTTGTTACCTTGTGTTTGTTCGTCACTTGTCGACAGCGCCCTGCGAATTGGTGTACCCACACCGCGCGGCTTGCGAATAATACTTTGGAGAGTCTTTTGCCTCCAGTGTCTTCCGTTTGTACTCGTCCTCCTCTCCCTCTCCGGCCGGGATGGG
B9: SVV (nucleic acid)
DNA: CTGGGCCCTCATGCCCAGTCCTTCCTTTCCCCTTCCGGGGGGTAAACCGGCTGTGTTTGCTAGAGGCACAGAGGAGCAACATCCAACCTGCTTTTGTGGGGAACGGTGCGGCTCCAATTCCTGCGTCGCCAAAGGTGTTAGCGCACCCAAACGGCGCATCTACCAATGCTATTGGTGTGGTCTGCGAGTTCTAGCCTACTCGTTTCTCCCCTATCCACTCACTCACGCACAAAAAGTGTGCTGTAATTACAAGATTTAGCCCTCGCACGAGATGTGCGATAACCGCAAGATTGACTCAAGCGCGGAAAGCGCTGTAACCACATGCTGTTAGTCCCTTCATGGCTGCGAGATGGCTATCCACCTCGGATCACTGAACTGGAGCTCGACCCTCCTTAGTAAGGGAACCGAGAGGCCTTCTTGCAACAAGCTCCGACACAGAGTCCACGTGATTGCTACCACCATGAGTACATGGTTCTCCCCTCTCGACCCAGGACTTCTTTTTGAATATCCACGGCTCGATCCAGAGGGTGGGGCATGATCCCCCTAGCATAGCGAGCTACAGCGGGAACTGTAGCTAGGCCTTAGCGTGCCTTGGATACTGCCTGATAGGGCGACGGCCTAGTCGTGTCGGTTCTATAGGTAGCACATACAAAT

In the series the test system is HEK293 cells. The series is classed as cell-based, human. The following applies: luminescence from secreted Gluc in supernatant 24 hours after transfection of HEK293 cells; circular RNA encoding Gluc with the named IRES (UTR truncated to 675 nt).
As for B1, the Expression came to 1.91E+06.

Take B2: the Expression was 2.76E+07.

B3 had an Expression of 5.05E+06.

For the molecule B4, the Expression amounted to 2.16E+06.

Take B5: the Expression was 8.27E+06.

B6: the Expression is listed as 7.29E+05.

For B7, the Expression came out at 6.02E+06.

B8 came in with an Expression of 9.44E+04.

The molecule B9 registered an Expression of 1.06E+06.
